Source: the RNAGym collection of RNA variant scans (doi:10.7554/elife.80360)

B1: Hairpin Ribozyme (parent)
chain: GUCCUCUUUCACGUGCGCGUGAAAGAGAGAAGUGAACCAGAGAAACACACGUUGUGGUAUAUUACCUGGUA

Variants of: B1
Experiment: self-cleavage, relative activity (ratio to wild type); higher = more cleavage; co-transcriptional

| Variant | self-cleavage |
| --- | --- |
| C66G A71C | 0.35 |
| C66G A71U | 0.168 |
| A61C A64G | 0.185 |
| A61C A64U | 0.179 |
| A59G U70A | 0.163 |
| A61U A71G | 0.275 |
| A61U A71C | 0.468 |
| U62A U67C | 0.134 |
| U62A U67A | 0.134 |
| A64U U67C | 0.213 |
| U60G A64U | 0.202 |
| U58C U67C | 0.205 |
| A59C C66A | 0.0564 |
| U63C A71C | 0.578 |
| A59G A71G | 0.0933 |
| A59G A71U | 0.106 |
| U60C G68C | 0.25 |
| U62C C65G | 0.132 |
| C65U A71G | 0.467 |
| C65U A71C | 0.774 |
| A64C A71U | 0.243 |
| A61G A71U | 0.393 |
| G69U A71C | 1.38 |
| G69U A71G | 0.438 |
| G69U A71U | 0.362 |
| C65G U67A | 0.0982 |

| Variant | self-cleavage |
| --- | --- |
| U58C A64U | 0.0829 |
| U60A G69A | 0.183 |
| U60A G69C | 0.336 |
| U60A G69U | 0.129 |
| A59G U67A | 0.311 |
| A59G U67G | 0.153 |
| U67C U70G | 0.269 |
| U67C U70C | 0.279 |
| U67C U70A | 0.229 |
| G68U U70G | 0.252 |
| A61C C66A | 0.0988 |
| A61C C66G | 0.101 |
| A61C C66U | 0.145 |
| A64U A71C | 0.494 |
| U60C C65A | 1.34 |
| G69U U70G | 0.299 |
| U58G C65A | 0.816 |
| U58G C65U | 0.412 |
| U60G U70C | 0.372 |
| U60G U70A | 0.572 |
| C66U G68C | 0.202 |
| A61G C66U | 0.277 |
| C66A U70A | 0.279 |
| A59C A61G | 0.207 |
| A59C A61C | 0.0887 |
| A61G G68A | 0.275 |

| Variant | self-cleavage |
| --- | --- |
| A61G G68U | 0.163 |
| U70G A71C | 1.74 |
| U70G A71U | 1.26 |
| U60C G69A | 0.51 |
| U63G A71C | 0.565 |
| U63G A71G | 0.226 |
| A59G G69U | 0.15 |
| A59G G69A | 0.125 |
| A61G A64G | 0.141 |
| U62C A64G | 0.18 |
| U62G C66A | 0.207 |
| G68C U70A | 0.143 |
| U63G G68U | 0.225 |
| U63G G68A | 0.281 |
| U58C A61U | 0.38 |
| U63C U70C | 0.19 |
| U58G C66G | 0.379 |
| U63A C66U | 0.258 |
| C65A A71G | 0.93 |
| C65A A71U | 0.7 |
| U60A U67A | 0.198 |
| C65G U70A | 0.197 |
| U63C U67G | 0.111 |
| U63C U67A | 0.21 |
| U63C U67C | 0.148 |
| U67C G69U | 0.147 |

| Variant | self-cleavage |
| --- | --- |
| U67A G69C | 0.258 |
| G57U U60G | 0.177 |
| C66A A71G | 0.196 |
| A64C U70A | 0.4 |
| A61G U67G | 0.157 |
| A61G U67C | 0.113 |
| G57U G69A | 0.149 |
| A59C G69A | 0.19 |
| A59C G69U | 0.131 |
| C66G U67A | 0.17 |
| U58C A71C | 1.21 |
| C65A G68C | 0.224 |
| C65A G68U | 0.292 |
| C65G C66A | 0.142 |
| C65U C66G | 0.248 |
| C65A C66U | 0.508 |
| U63A U70G | 0.151 |
| U63A C65U | 0.0803 |
| A64C G69U | 0.234 |
| A64C G69A | 0.251 |
| U67C G68U | 0.208 |
| U67C G68A | 0.231 |
| C65U U70A | 0.379 |
| G57U U70C | 0.075 |
| U62G U70G | 0.352 |
| U62G U70C | 0.18 |

| Variant | self-cleavage |
| --- | --- |
| A61C G68C | 0.153 |
| A59U U63A | 0.206 |
| A59U U63G | 0.218 |
| U58G A61C | 0.32 |
| U58G A61G | 0.111 |
| A64G C66A | 0.211 |
| A64G C66U | 0.109 |
| A59G A64C | 0.273 |
| A59G A64G | 0.176 |
| A59G A61C | 0.39 |
| U63A A71U | 0.182 |
| U63A A71G | 0.221 |
| A59G U62G | 0.167 |
| U58A C66G | 0.165 |
| A61U U63G | 0.187 |
| A61U U63C | 0.0398 |
| U60A U70A | 0.61 |
| U60A U70C | 0.626 |
| U63C C66U | 0.165 |
| U63C C66G | 0.244 |
| U62G | 0.179 |
| U62C | 0.268 |
| U62A | 0.185 |
| U60G G69U | 0.101 |
| U60G U67C | 0.121 |
| U62A C65G | 0.101 |

| Variant | self-cleavage |
| --- | --- |
| G69C U70C | 0.685 |
| G69C U70A | 0.437 |
| G57U U62C | 0.158 |
| U67G A71U | 0.918 |
| A59U A64G | 0.139 |
| A59U A64C | 0.149 |
| U58A U63A | 0.14 |
| C65U G69A | 0.193 |
| C65U G69C | 0.0941 |
| U62A U70C | 0.219 |
| U60G A61G | 0.205 |
| G68U A71U | 0.234 |
| U62A A71G | 0.211 |
| U60A U63A | 0.164 |
| U60A U63C | 0.151 |
| A61U C65A | 0.107 |
| U58G A64G | 0.341 |
| U58G A64C | 0.163 |
| U60G C65A | 0.453 |
| U60G C65G | 0.442 |
| U60C U63A | 0.262 |
| U58A U67G | 0.135 |
| C66G G69A | 0.185 |
